The values that follow come from US20170002055A1, “Novel peptides and combination of peptides for use in immunotherapy against ovarian cancer and other cancers” (immatics biotechnologies GmbH, priority 2015, published 2017).

This test addresses HLA-A*02:01 (Homo sapiens, UniProt P04439, D140Y/D185E/D98H/E176V/E277Q/G131W/G231S/I119V/I121R/I166T/I218V/L300P/L318F/N151K/N90K/P208A/P217A/Q86G/Q94H/R138H/R169H/T345S). Kind of test: MHC binding assay (UV-ligand exchange, β2m ELISA, peptide exchange yield). The settings on record: MHC class I binding score; binding to HLA-A*02:01 ranged by peptide exchange yield (UV-ligand exchange, β2m ELISA). In a few lines:
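Peptide–HLA-A*02:01 complexes were formed by UV-mediated exchange of a UV-cleavable ligand for the test peptide. Exchange yield was measured by capturing complexes on streptavidin, detecting with HRP anti-β2m antibody (1 h, 37°C) and reading TMB absorbance at 450 nm.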
A general note: In an ELISA, binding on a coated surface is turned into a signal by an enzyme label.
On to “379 (IMEGTLTRV; listed as Homo sapiens) [compound 379]”, for which the Peptide exchange entry was ““++” (≧20% = ++)”.

In the case of “380 (TLIEDEIATI; listed as Homo sapiens) [compound 380]”, the Peptide exchange result is ““++” (≧20% = ++)”.

Take “381 (FIDEAYVEV; listed as Homo sapiens) [compound 381]”: the Peptide exchange result is ““++” (≧20% = ++)”. To “382 (ALQNYIKEA; listed as Homo sapiens) [compound 382]” belongs ““++” (≧20% = ++)”; to “383 (ALLELENSVTL; listed as Homo sapiens) [compound 383]”, ““+++” (≧50 = +++)”.

As to “385 (SLLEQGLVEA; listed as Homo sapiens) [compound 385]”, the Peptide exchange result is ““++” (≧20% = ++)”. To “386 (ILFRYPLTI; listed as Homo sapiens) [compound 386]” belongs ““+++” (≧50 = +++)”; to “387 (ALFQATAEV; listed as Homo sapiens) [compound 387]”, ““++++” (≧75% = ++++)”; to “388 (SLTIDGIRYV; listed as Homo sapiens) [compound 388]”, ““+++” (≧50 = +++)”. Under “389 (LLADVTHLL; listed as Homo sapiens) [compound 389]” stands ““++” (≧20% = ++)”; under “390 (ALFMKQIYL; listed as Homo sapiens) [compound 390]”, ““+++” (≧50 = +++)”; under “391 (YVYPQRLNFV; listed as Homo sapiens) [compound 391]”, ““+++” (≧50 = +++)”.

Consider “392 (ALLHPQGFEV; listed as Homo sapiens) [compound 392]”, for which the Peptide exchange result is ““++” (≧20% = ++)”.

In the case of “393 (GLLDTQTSQVLTA; listed as Homo sapiens) [compound 393]”, the Peptide exchange entry was ““++” (≧20% = ++)”. To “394 (LLAVIGGLVYL; listed as Homo sapiens) [compound 394]” belongs ““+++” (≧50 = +++)”. Under “396 (ALLPDLPAL; listed as Homo sapiens) [compound 396]” stands ““+++” (≧50 = +++)”; under “397 (YLFGERLLEC; listed as Homo sapiens) [compound 397]”, ““+++” (≧50 = +++)”.

Turning to “398 (KLLEEDGTIITL; listed as Homo sapiens) [compound 398]”, the Peptide exchange result is listed as ““++” (≧20% = ++)”. On to “399 (YLFEPLYHV; listed as Homo sapiens) [compound 399]”, for which the Peptide exchange result is reported as ““+++” (≧50 = +++)”. To “400 (SLLTEQDLWTV; listed as Homo sapiens) [compound 400]” belongs ““++” (≧20% = ++)”; to “401 (ILLDDTGLAYI; listed as Homo sapiens) [compound 401]”, ““+++” (≧50 = +++)”.

“402 (VLFSGALLGL; listed as Homo sapiens) [compound 402]”: the Peptide exchange result was ““++” (≧20% = ++)”.

Regarding “403 (KLYDRILRV; listed as Homo sapiens) [compound 403]”, the Peptide exchange entry is ““++” (≧20% = ++)”. Under “405 (ALYDVFLEV; listed as Homo sapiens) [compound 405]” stands ““++” (≧20% = ++)”; under “407 (YLMDLINFL; listed as Homo sapiens) [compound 407]”, ““+++” (≧50 = +++)”; under “408 (VLDDSIYLV; listed as Homo sapiens) [compound 408]”, ““++” (≧20% = ++)”. Under “409 (LLDAMNYHL; listed as Homo sapiens) [compound 409]” stands ““++” (≧20% = ++)”. “412 (YLDDLNEGVYI; listed as Homo sapiens) [compound 412]”: the Peptide exchange result is on record as ““++” (≧20% = ++)”. Under “426 (RLADKSVLV; listed as Homo sapiens) [compound 426]” stands ““+++” (≧50 = +++)”; under “427 (ALLPLSPYL; listed as Homo sapiens) [compound 427]”, ““+++” (≧50 = +++)”; under “428 (KLGHTDILVGV; listed as Homo sapiens) [compound 428]”, ““++” (≧20% = ++)”. For the substance “429 (GLVNDLARV; listed as Homo sapiens) [compound 429]”, the Peptide exchange entry was ““++” (≧20% = ++)”. As to “430 (HLYSSIEHLTT; listed as Homo sapiens) [compound 430]”, the Peptide exchange result is given as ““+++” (≧50 = +++)”. To “431 (SLVNVVPKL; listed as Homo sapiens) [compound 431]” belongs ““++” (≧20% = ++)”. To “432 (TLIEESAKV; listed as Homo sapiens) [compound 432]” belongs ““++” (≧20% = ++)”; to “433 (AMLNEPWAV; listed as Homo sapiens) [compound 433]”, ““+++” (≧50 = +++)”.

As to “434 (KVSNSGITRV; listed as Homo sapiens) [compound 434]”, the Peptide exchange result was ““++” (≧20% = ++)”. Under “436 (HLAEVSAEV; listed as Homo sapiens) [compound 436]” stands ““+++” (≧50 = +++)”; under “437 (SMAPGLVIQAV; listed as Homo sapiens) [compound 437]”, ““+++” (≧50 = +++)”. To “438 (KLLPLAGLYL; listed as Homo sapiens) [compound 438]” belongs ““++++” (≧75% = ++++)”; to “439 (YLLQEIYGI; listed as Homo sapiens) [compound 439]”, ““+++” (≧50 = +++)”; to “440 (ALADGVTMQV; listed as Homo sapiens) [compound 440]”, ““++” (≧20% = ++)”. Under “441 (ALLENPKMEL; listed as Homo sapiens) [compound 441]” stands ““+++” (≧50 = +++)”; under “442 (GLLGGGGVLGV; listed as Homo sapiens) [compound 442]”, ““+++” (≧50 = +++)”; under “444 (GLLRDEALAEV; listed as Homo sapiens) [compound 444]”, ““+++” (≧50 = +++)”. Regarding “447 (QLVPALAKV; listed as Homo sapiens) [compound 447]”, the Peptide exchange entry was ““++” (≧20% = ++)”.

For “448 (NLLETKLQL; listed as Homo sapiens) [compound 448]”, the Peptide exchange result is reported as ““+++” (≧50 = +++)”. Under “449 (KLAEGLDIQL; listed as Homo sapiens) [compound 449]” stands ““+++” (≧50 = +++)”; under “450 (FMIDASVHPTL; listed as Homo sapiens) [compound 450]”, ““+++” (≧50 = +++)”. To “451 (LLLLDTVTMQV; listed as Homo sapiens) [compound 451]” belongs ““++” (≧20% = ++)”; to “452 (ILLEHGADPNL; listed as Homo sapiens) [compound 452]”, ““+++” (≧50 = +++)”. Under “453 (KLLEATSAV; listed as Homo sapiens) [compound 453]” stands ““++” (≧20% = ++)”; under “455 (SLLKEPQKVQL; listed as Homo sapiens) [compound 455]”, ““++” (≧20% = ++)”.
